Publication PMC8094900

Columns and labels:
[1] = target: Myrf-L479V N-terminal fragment; assay: cold western blot (cold SDS-PAGE, Flag immunoblot); conditions: Flag-tagged constructs expressed in Oli-neu cells; SDS-PAGE in a cold condition; parent: est. 0.27; read off a plot
[2] = target: Myrf N-terminal fragment (wild-type mouse Myrf) (mouse); assay: cold western blot (SDS-PAGE in a cold chamber); N-terminally Flag-tagged Myrf constructs expressed in Oli-neu cells; SDS-PAGE in a cold condition, membrane probed with Flag antibodies; ratio of trimeric to monomeric N-terminal fragment
[3] = target: Myrf-F387S N-terminal fragment; assay: cold western blot (cold SDS-PAGE, Flag immunoblot); conditions: Flag-tagged constructs expressed in Oli-neu cells; SDS-PAGE in a cold condition; parent: est. 0.27; read off a plot
[4] = target: Myrf-G435R N-terminal fragment; assay: cold western blot (cold SDS-PAGE, Flag immunoblot); conditions: Flag-tagged constructs expressed in Oli-neu cells; SDS-PAGE in a cold condition; parent: est. 0.27; read off a plot
[5] = target: Myrf-Q403H N-terminal fragment; assay: cold western blot (cold SDS-PAGE, Flag immunoblot); conditions: Flag-tagged constructs expressed in Oli-neu cells; SDS-PAGE in a cold condition; parent: est. 0.27; read off a plot

Sequence of Myrf N-terminal fragment (wild-type mouse Myrf) (Q3UR85 whole entry, the tested form may be a part): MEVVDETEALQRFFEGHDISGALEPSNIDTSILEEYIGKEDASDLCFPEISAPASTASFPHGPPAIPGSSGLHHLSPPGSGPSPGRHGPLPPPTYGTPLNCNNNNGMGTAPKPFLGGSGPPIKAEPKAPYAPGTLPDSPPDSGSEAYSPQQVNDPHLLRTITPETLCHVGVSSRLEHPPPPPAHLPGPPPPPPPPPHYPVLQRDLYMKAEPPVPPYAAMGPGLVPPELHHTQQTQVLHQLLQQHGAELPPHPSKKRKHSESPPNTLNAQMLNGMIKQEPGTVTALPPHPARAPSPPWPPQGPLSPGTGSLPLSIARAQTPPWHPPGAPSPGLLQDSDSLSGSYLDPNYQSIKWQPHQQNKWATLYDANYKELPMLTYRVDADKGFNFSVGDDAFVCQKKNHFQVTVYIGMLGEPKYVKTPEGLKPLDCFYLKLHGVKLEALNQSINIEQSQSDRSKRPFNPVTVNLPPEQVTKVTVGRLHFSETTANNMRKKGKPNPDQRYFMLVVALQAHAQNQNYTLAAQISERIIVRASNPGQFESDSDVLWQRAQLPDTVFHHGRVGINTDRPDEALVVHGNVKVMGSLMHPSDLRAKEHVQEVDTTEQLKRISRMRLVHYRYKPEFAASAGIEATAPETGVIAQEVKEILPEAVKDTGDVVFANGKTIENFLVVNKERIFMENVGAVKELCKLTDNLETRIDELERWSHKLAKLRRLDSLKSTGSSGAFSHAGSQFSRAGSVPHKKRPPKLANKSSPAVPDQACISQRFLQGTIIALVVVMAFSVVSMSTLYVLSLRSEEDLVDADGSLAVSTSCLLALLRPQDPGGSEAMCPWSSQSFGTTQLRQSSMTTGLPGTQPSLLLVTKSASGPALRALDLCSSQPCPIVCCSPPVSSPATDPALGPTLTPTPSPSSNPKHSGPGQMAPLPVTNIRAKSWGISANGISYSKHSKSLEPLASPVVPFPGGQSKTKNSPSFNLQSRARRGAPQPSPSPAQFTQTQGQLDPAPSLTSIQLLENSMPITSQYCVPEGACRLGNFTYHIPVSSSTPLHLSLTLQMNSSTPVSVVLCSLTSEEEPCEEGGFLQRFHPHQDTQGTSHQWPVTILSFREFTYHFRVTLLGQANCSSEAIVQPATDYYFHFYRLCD

Myrf N-terminal fragment (wild-type mouse Myrf) L479V
other: Trimer/(Trimer+Monomer) [1]: 0.01

Myrf N-terminal fragment (wild-type mouse Myrf) (domain or fragment)
stoichiometry N [2]: 3

Myrf N-terminal fragment (wild-type mouse Myrf) F387S
other: Trimer/(Trimer+Monomer) [3]: 0.045

Myrf N-terminal fragment (wild-type mouse Myrf) G435R
other: Trimer/(Trimer+Monomer) [4]: 0.02

Myrf N-terminal fragment (wild-type mouse Myrf) Q403H
other: Trimer/(Trimer+Monomer) [5]: 0.08
